The values that follow come from FireProtDB.

Several values for one entry are separate records, joined by “and”; a condition that tells them apart may be missing. Equal entries are not always repeated.

The conditions of this data set: whole UniProt chain shown.
The mark [1] stands for this setting: Fusarium vanettenii, pH 9, Thermal, DSC, Tris 10 mM, NaCl 40 mM, reversible: no.
Where [2] appears, read: Escherichia coli (strain K12), pH 7.8, 23 °C, Urea, Fluorescence, Tris-HCl 10 mM, NaCl 100 mM, reversible: yes.
The mark [3] stands for this setting: Gallus gallus, pH 7.4, 25 °C, GdnHCl, CD, Tris 50 mM, KCl 100 mM, reversible: yes.
Where [4] appears, read: Escherichia coli, pH 5, 23 °C, Urea, DSC, Acetic acid/MES/Tris 50 mM/50 mM/100 mM/, reversible: yes.
[5] abbreviates: Escherichia coli, pH 8, Thermal, DSC, Tris/MES/Acetic acid 100 mM/50 mM/50 mM/, reversible: yes.

B1: Outer membrane porin F wild type, P02931 (protein)
chain: MMKRNILAVIVPALLVAGTANAAEIYNKDGNKVDLYGKAVGLHYFSKGNGENSYGGNGDMTYARLGFKGETQINSDLTGYGQWEYNFQGNNSEGADAQTGNKTRLAFAGLKYADVGSFDYGRNYGVVYDALGYTDMLPEFGGDTAYSDDFFVGRVGGVATYRNSNFFGLVDGLNFAVQYLGKNERDTARRSNGDGVGGSISYEYEGFGIVGAYGAADRTNLQEAQPLGNGKKAEQWATGLKYDANNIYLAANYGETRNATPITNKFTNTSGFANKTQDVLLVAQYQFDFGLRPSIAYTKSKAKDVEGIGDVDLVNYFEVGATYYFNKNMSTYVDYIINQIDSDNKLGVGSDDTVAVGIVYQF
Broadly, the Tm is the temperature at the midpoint of the melting transition. On to B1, for which, where the note is “Escherichia coli (strain K12), pH 7.5, Thermal, CD, Tris 50mM”, the Tm worked out at 79.3 °C.

B2: Glutamine-binding periplasmic protein wild type, P0AEQ3 (protein)
chain: MKSVLKVSLAALTLAFAVSSHAADKKLVVATDTAFVPFEFKQGDKYVGFDVDLWAAIAKELKLDYELKPMDFSGIIPALQTKNVDLALAGITITDERKKAIDFSDGYYKSGLLVMVKANNNDVKSVKDLDGKVVAVKSGTGSVDYAKANIKTKDLRQFPNIDNAYMELGTNRADAVLHDTPNILYFIKTAGNGQFKAVGDSLEAQQYGIAFPKGSDELRDKVNGALKTLRENGTYNEIYKKWFGTEPK
As for B2, the Tm (Escherichia coli (strain K12), pH 8.3, Thermal, Absorbance, Tris-HCl 10 mM) was 63.1 °C and 66.2 °C.

B3: Aspartate carbamoyltransferase catalytic subunit wild type, P0A786 (protein)
chain: MANPLYQKHIISINDLSRDDLNLVLATAAKLKANPQPELLKHKVIASCFFEASTRTRLSFETSMHRLGASVVGFSDSANTSLGKKGETLADTISVISTYVDAIVMRHPQEGAARLATEFSGNVPVLNAGDGSNQHPTQTLLDLFTIQETQGRLDNLHVAMVGDLKYGRTVHSLTQALAKFDGNRFYFIAPDALAMPQYILDMLDEKGIAWSLHSSIEEVMAEVDILYMTRVQKERLDPSEYANVKAQFVLRASDLHNAKANMKVLHPLPRVDEIATDVDKTPHAWYFQQAGNGIFARQALLALVLNRDLVL
Regarding B3, the unfolding free energy (Escherichia coli (strain K12), pH 8.3, 7.5 °C, Urea, Absorbance, HEPES 0.1 M, reversible: yes) was determined as 2 kcal/mol.

B4: Cutinase 1 wild type, P00590 (protein)
chain: MKFFALTTLLAATASALPTSNPAQELEARQLGRTTRDDLINGNSASCRDVIFIYARGSTETGNLGTLGPSIASNLESAFGKDGVWIQGVGGAYRATLGDNALPRGTSSAAIREMLGLFQQANTKCPDATLIAGGYSQGAALAAASIEDLDSAIRDKIAGTVLFGYTKNLQNRGRIPNYPADRTKVFCNTGDLVCTGSLIVAAPHLAYGPDARGPAPEFLIEKVRAVRGSA
On to B4, for which the Tm (Fusarium vanettenii, pH 4.5, Thermal, Fluorescence, Sodium acetate 25 mM, reversible: Yes) worked out at 75 °C. Under setting [1], the “unfolding enthalpy (calorimetric)” value was 104 kcal/mol and 92.3 kcal/mol; the “unfolding enthalpy (van 't Hoff)” value was 212 kcal/mol and 122 kcal/mol.

B5: Ribose import binding protein RbsB wild type, P02925 (protein)
chain: MNMKKLATLVSAVALSATVSANAMAKDTIALVVSTLNNPFFVSLKDGAQKEADKLGYNLVVLDSQNNPAKELANVQDLTVRGTKILLINPTDSDAVGNAVKMANQANIPVITLDRQATKGEVVSHIASDNVLGGKIAGDYIAKKAGEGAKVIELQGIAGTSAARERGEGFQQAVAAHKFNVLASQPADFDRIKGLNVMQNLLTAHPDVQAVFAQNDEMALGALRALQTAGKSDVMVVGFDGTPDGEKAVNDGKLAATIAQLPDQIGAKGVETADKVLKGEKVQAKYPVDLKLVVKQ
As to B5, where the note is “Escherichia coli (strain K12), pH 7.7, 25 °C, GdnHCl, Fluorescence, HEPES 10 mM, reversible: yes”, the unfolding free energy was 5.1 kcal/mol.

B6: Colicin-A wild type, Q47108 (protein)
chain: VAEKAKDERELLEKTSELIAGMGDKIGEHLGDKYKAIAKDIADNIKNFQGKTIRSFDDAMASLNKITANPAMKINKADRDALVNAWKHVDAQDMANKLGNLSKAFKVADVVMKVEKVREKSIEGYETGNWGPLMLEVESWVLSGIASSVALGIFSATLGAYALSLGVPAIAVGIAGILLAAVVGALIDDKFADALNNEIIRPAH
On to B6, for which the Tm (Escherichia coli, pH 3, Thermal, DSC, Na2HPO4-citrate 30 mM, reversible: no) came to 39 °C; the Tm (Escherichia coli, pH 3.5, Thermal, DSC, Na2HPO4-citrate 30 mM, reversible: no) turned out to be 49 °C; the Tm (Escherichia coli, pH 4, Thermal, DSC, Na2HPO4-citrate 30 mM, reversible: no) is 56 °C; the Tm (Escherichia coli, pH 7, Thermal, DSC, Na2HPO4-citrate 30 mM, reversible: no) was found to be 69 °C; the Tm (Escherichia coli, pH 8, Thermal, DSC, Na2HPO4-citrate 30 mM, reversible: no) stood at 67 °C.

B7: Phosphoglycerate kinase wild type, P18912 (protein)
chain: MNKKTIRDVDVRGKRVFCRVDFNVPMEQGAITDDTRIRAALPTIRYLIEHGAKVILASHLGRPKGKVVEELRLDAVAKRLGELLERPVAKTNEAVGDEVKAAVDRLNEGDVLLLENVRFYPGEEKNDPELAKAFAELADLYVNDAFGAAHRAHASTEGIAHYLPAVAGFLMEKELEVLGKALSNPDRPFTAIIGGAKVKDKIGVIDNLLEKVDNLIIGGGLAYTFVKALGHDVGKSLLEEDKIELAKSFMEKAKEKGVRFYMPVDVVVADRFANDANTKVVPIDAIPADWSALDIGPKTRELYRDVIRESKLVVWNGPMGVFEMDAFAHGTKAIAEALAEALDTYSVIGGGDSAAAVEKFGLADKMDHISTGGGASLEFMEGKQLPGVVALEDK
With B7, the unfolding free energy reads like this: (Geobacillus stearothermophilus, pH 7.2, 25 °C, GdnHCl, Fluorescence, TEA 50 mM, reversible: no) 13.2 kcal/mol and 9.3 kcal/mol; (Geobacillus stearothermophilus, pH 7.2, 25 °C, GdnHCl, Fluorescence, tri-ethanolamine 50 mM, reversible: Yes) 8.76 kcal/mol.

B8: Head completion protein wild type, P68660 (protein)
chain: MTRQEELAAARAALHDLMTGKRVATVQKDGRRVEFTATSVSDLKKYIAELEVQTGMTQRRRGPAGFYV
Turning to B8, the unfolding free energy (Escherichia phage lambda, pH 8, 25 °C, Urea, CD, Tris 10 mM, reversible: yes) is 2.91 kcal/mol and 3.27 kcal/mol. In addition, for the setting “Escherichia phage lambda, pH 8, Thermal, CD, Tris 10 mM, reversible: yes”, the Tm is 71.6 °C and 71.8 °C.

B9: Co-chaperonin GroES wild type, P0A6F9 (protein)
chain: MNIRPLHDRVIVKRKEVETKSAGGIVLTGSAAAKSTRGEVLAVGNGRILENGEVKPLDVKVGDIVIFNDGYGVKSEKIDNEEVLIMSESDILAIVEA
As for B9, under setting [2], the denaturant m value was 1.83 kcal/mol/M and the unfolding free energy was determined as 5.77 kcal/mol.

B10: Apolipoprotein A-I wild type, P08250 (protein)
chain: MRGVLVTLAVLFLTGTQARSFWQHDEPQTPLDRIRDMVDVYLETVKASGKDAIAQFESSAVGKQLDLKLADNLDTLSAAAAKLREDMAPYYKEVREMWLKDTEALRAELTKDLEEVKEKIRPFLDQFSAKWTEELEQYRQRLTPVAQELKELTKQKVELMQAKLTPVAEEARDRLRGHVEELRKNLAPYSDELRQKLSQKLEEIREKGIPQASEYQAKVMEQLSNLREKMTPLVQEFRERLTPYAENLKNRLISFLDELQKSVA
B10: the unfolding free energy worked out at 2.93 kcal/mol (Gallus gallus, pH 7.4, 20 °C, GdnHCl, Fluorescence, Tris 50 mM, KCl 100 mM, reversible: yes) and 1.86 kcal/mol under setting [3]. Moreover, the denaturant m value under setting [3] is 2.78 kcal/mol/M.

B11: ATP-dependent 6-phosphofructokinase isozyme 2 wild type, P06999 (protein)
chain: MVRIYTLTLAPSLDSATITPQIYPEGKLRCTAPVFEPGGGGINVARAIAHLGGSATAIFPAGGATGEHLVSLLADENVPVATVEAKDWTRQNLHVHVEASGEQYRFVMPGAALNEDEFRQLEEQVLEIESGAILVISGSLPPGVKLEKLTQLISAAQKQGIRCIVDSSGEALSAALAIGNIELVKPNQKELSALVNRELTQPDDVRKAAQEIVNSGKAKRVVVSLGPQGALGVDSENCIQVVPPPVKSQSTVGAGDSMVGAMTLKLAENASLEEMVRFGVAAGSAATLNQGTRLCSHDDTQKIYAYLSR
With B11, the unfolding free energy was 12.1 kcal/mol (Escherichia coli (strain K12), pH 7.8, 20 °C, GdnHCl, Activity, Tris 50 mM, Magnesiun chloride 5 mM, reversible: Yes); 12.2 kcal/mol (Escherichia coli (strain K12), pH 7.8, 20 °C, GdnHCl, CD, Tris 50 mM, Magnesiun chloride 5 mM, reversible: Yes); 11.9 kcal/mol (Escherichia coli (strain K12), pH 7.8, 20 °C, GdnHCl, Fluorescence, Tris 50 mM, Magnesiun chloride 5 mM, reversible: Yes).

B12: Dihydrofolate reductase type 2 wild type, P00383 (protein)
chain: MERSSNEVSNPVAGNFVFPSNATFGMGDRVRKKSGAAWQGQIVGWYCTNLTPEGYAVESEAHPGSVQIYPVAALERIN
On to B12, for which, under setting [4], the denaturant m value was 1.46 kcal/mol/M, the “denaturant midpoint (higher = more stable)” value is 3.63 M and the unfolding free energy turned out to be 13.3 kcal/mol. Also, the unfolding free energy (Escherichia coli, pH 5, 30 °C, GdnHCl, CD, Acetic acid/MES/Tris 50 mM/50 mM/100 mM/, reversible: yes) is 15.5 kcal/mol. Moreover, under “Escherichia coli, pH 5, 30 °C, GdnHCl, Fluorescence, Acetic acid/MES/Tris 50 mM/50 mM/100 mM/, reversible: yes”, the unfolding free energy was 13.5 kcal/mol. Further, the unfolding free energy (Escherichia coli, pH 8, 30 °C, GdnHCl, CD, Tris/MES/Acetic acid 100 mM/50 mM/50 mM/, reversible: yes) is 9.63 kcal/mol. Moreover, under setting [5], the Tm was found to be 71 °C and the “unfolding enthalpy (calorimetric)” value stood at 307 kcal/mol.
